{"source": "IntAct's records for PubMed 18278053", "parents": {"B1": {"name": "Integrin beta-1 (Gallus gallus (Chicken)), P07228 (parent)", "chain": "MAETNLTLLTWAGILCCLIWSGSAQQGGSDCIKANAKSCGECIQAGPNCGWCKKTDFLQEGEPTSARCDDLAALKSKGCPEQDIENPRGSKRVLEDREVTNRKIGAAEKLKPEAITQIQPQKLVLQLRVGEPQTFSLKFKRAEDYPIDLYYLMDLSYSMKDDLENVKSLGTALMREMEKITSDFRIGFGSFVEKTVMPYISTTPAKLRNPCTGDQNCTSPFSYKNVLSLTSEGNKFNELVGKQHISGNLDSPEGGFDAIMQVAVCGDQIGWRNVTRLLVFSTDAGFHFAGDGKLGGIVLPNDGKCHLENNMYTMSHYYDYPSIAHLVQKLSENNIQTIFAVTEEFQAVYKELKNLIPKSAVGTLSSNSSNVIQLIIDAYNSLSSEVILENSKLPKEVTISYKSYCKNGVNDTQEDGRKCSNISIGDEVRFEINVTANECPKKGQNETIKIKPLGFTEEVEIHLQFICDCLCQSEGEPNSPACHDGNGTFECGACRCNEGRIGRLCECSTDEVNSEDMDAYCRRENSTEICSNNGECICGQCVCKKRENTNEVYSGKYCECDNFNCDRSNGLICGGNGICKCRVCECFPNFTGSACDCSLDTTPCMAGNGQICNGRGTCECGTCNCTDPKFQGPTCEMCQTCLGVCAEHKDCVQCRAFEKGEKKETCSQECMHFNMTRVESRGKLPQPVHPDPLSHCKEKDVGDCWFYFTYSVNSNGEASVHVVETPECPSGPDIIPIVAGVVAGIVLIGLALLLIWKLLMIIHDRREFAKFEKEKMNAKWDTGENPIYKSAVTTVVNPKYEGK"}}, "data": [{"variants_of": "B1", "conditions": "with urp2_mouse Fermt3, Q8K1B8", "values": [{"variant": "Y788A", "effect of a mutation on the interaction": "decreasing interaction strength"}, {"variant": "T793A;T794A", "effect of a mutation on the interaction": "disrupting interaction strength"}, {"variant": "Y800A", "effect of a mutation on the interaction": "disrupting interaction strength"}, {"variant": "W780A", "effect of a mutation on the interaction": "decreasing interaction strength"}]}]}
